# Data from paper PMC9482650, “Quantitative fragmentomics allow affinity mapping of interactomes” (Nature Communications, 2022).
# Assays:
# Assay in all cases: holdup assay
# Design in all cases: key: below the threshold = too weak to quantify, mostly under pKd 3.1 to 4
# [1] = target: Inadl_8, Q8NI35
# [2] = target: SCRIB_3, Q14160
# [3] = target: NHERF4_1, Q86UT5-2
# [4] = target: Inadl_9, Q8NI35
# [5] = target: GRIP2_3, Q9C0E4
# [6] = target: SCRIB_1, Q14160
# [7] = target: DLG1_2, Q12959
# [8] = target: TJP1_3, Q07157
# [9] = target: T1, DLG3_3, Q92796
# T1 sequence (Q92796 374-475, limits assumed, looked up): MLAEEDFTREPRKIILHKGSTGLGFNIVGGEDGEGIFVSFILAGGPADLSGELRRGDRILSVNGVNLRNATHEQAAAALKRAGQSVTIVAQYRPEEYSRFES
# [10] = target: T2, HTRA3, P83110
# T2 sequence (P83110 354-453, limits assumed, looked up): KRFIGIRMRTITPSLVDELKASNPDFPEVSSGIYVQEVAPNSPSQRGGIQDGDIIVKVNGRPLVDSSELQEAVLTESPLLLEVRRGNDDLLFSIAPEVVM
# [11] = target: T3, GRIP1_5, Q9Y3R0
# T3 sequence (Q9Y3R0 568-668, limits assumed, looked up): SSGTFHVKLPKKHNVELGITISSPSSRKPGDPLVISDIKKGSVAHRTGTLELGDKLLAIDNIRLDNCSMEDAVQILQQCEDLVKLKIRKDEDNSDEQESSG
# [12] = target: Inadl_4, Q8NI35
# [13] = target: T4, APBA1_2, Q02410
# T4 sequence (Q02410 742-832, limits assumed, looked up): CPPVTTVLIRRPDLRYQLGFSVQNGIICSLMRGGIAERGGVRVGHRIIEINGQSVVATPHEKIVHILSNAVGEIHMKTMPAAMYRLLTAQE
# [14] = target: Inadl_10, Q8NI35
# [15] = target: PDLIM1, O00151
# [16] = target: DLG1_3, Q12959
# [17] = target: GOPC, Q9HD26
# [18] = target: PDZRN4_1, Q6ZMN7
# [19] = target: T5, FRMPD1, Q5SYB0
# T5 sequence (Q5SYB0 52-145, limits assumed, looked up): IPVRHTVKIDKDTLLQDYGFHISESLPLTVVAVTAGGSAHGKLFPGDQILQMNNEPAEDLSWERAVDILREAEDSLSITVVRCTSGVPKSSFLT
# [20] = target: T6, LNX2_2, Q8N448
# T6 sequence (Q8N448 334-432, limits assumed, looked up): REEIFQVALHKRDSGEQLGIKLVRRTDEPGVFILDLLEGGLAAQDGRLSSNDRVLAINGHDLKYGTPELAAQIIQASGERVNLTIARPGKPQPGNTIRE
# [21] = target: Inadl_5, Q8NI35
# [22] = target: T7, DFNB31_2, Q9P202
# T7 sequence (Q9P202 274-371, limits assumed, looked up): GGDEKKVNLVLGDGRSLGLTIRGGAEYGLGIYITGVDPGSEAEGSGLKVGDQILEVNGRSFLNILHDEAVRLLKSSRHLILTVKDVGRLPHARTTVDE
# [23] = target: FRMPD3, Q5JV73
# [24] = target: NOS1, P29475
# [25] = target: TJP2_1, Q9UDY2
# [26] = target: PTPN3, P26045
# [27] = target: T8, APBA1_1, Q02410
# T8 sequence (Q02410 651-752, limits assumed, looked up): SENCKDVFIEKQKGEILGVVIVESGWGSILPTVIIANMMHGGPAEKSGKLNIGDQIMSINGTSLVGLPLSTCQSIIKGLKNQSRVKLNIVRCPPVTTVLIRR
# [28] = target: AHNAK1, Q09666
# [29] = target: T9, DVL3, Q92997
# T9 sequence (Q92997 244-331, limits assumed, looked up): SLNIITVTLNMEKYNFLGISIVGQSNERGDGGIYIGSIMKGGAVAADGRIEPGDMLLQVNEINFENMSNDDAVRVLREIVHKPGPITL
# [30] = plain residues with an end cap or a label only (N-terminal biotin on a linker: ado-ado)
# [31] = plain residues with an end cap or a label only (N-terminal biotin on a linker: ahx)
# Sequence of Inadl_4, Q8NI35 (Q8NI35 547-651): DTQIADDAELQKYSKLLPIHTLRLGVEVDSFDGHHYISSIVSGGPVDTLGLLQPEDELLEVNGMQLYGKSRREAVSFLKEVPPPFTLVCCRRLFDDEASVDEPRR
# Sequence of GRIP2_3, Q9C0E4 (Q9C0E4 238-339): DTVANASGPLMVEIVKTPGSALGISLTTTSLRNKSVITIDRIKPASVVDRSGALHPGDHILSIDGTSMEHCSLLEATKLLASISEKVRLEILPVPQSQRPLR
# Sequence of Inadl_5, Q8NI35 (Q8NI35 673-780): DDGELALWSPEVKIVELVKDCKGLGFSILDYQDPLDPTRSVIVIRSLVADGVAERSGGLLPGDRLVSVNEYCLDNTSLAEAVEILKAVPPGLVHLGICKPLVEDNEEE
# Sequence of SCRIB_3, Q14160 (Q14160 999-1103): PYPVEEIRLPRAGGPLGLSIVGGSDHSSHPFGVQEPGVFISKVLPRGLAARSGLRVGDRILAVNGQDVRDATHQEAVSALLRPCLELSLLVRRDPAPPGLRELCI
# Sequence of AHNAK1, Q09666 (Q09666 4-100): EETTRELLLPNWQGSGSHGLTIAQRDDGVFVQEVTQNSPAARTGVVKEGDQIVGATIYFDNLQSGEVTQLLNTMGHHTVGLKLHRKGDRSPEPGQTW
# Sequence of DLG1_3, Q12959 (Q12959 457-571): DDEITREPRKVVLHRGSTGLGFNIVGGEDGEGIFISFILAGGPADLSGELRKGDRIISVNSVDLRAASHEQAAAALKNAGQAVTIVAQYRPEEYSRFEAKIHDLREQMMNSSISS
# Sequence of NHERF4_1, Q86UT5-2 (Q86UT5 other isoform, or with tags, fused parts or gaps): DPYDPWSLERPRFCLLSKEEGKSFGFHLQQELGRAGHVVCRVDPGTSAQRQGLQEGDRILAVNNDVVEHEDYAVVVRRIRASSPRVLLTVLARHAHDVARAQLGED
# Sequence of SCRIB_1, Q14160 (Q14160 718-814): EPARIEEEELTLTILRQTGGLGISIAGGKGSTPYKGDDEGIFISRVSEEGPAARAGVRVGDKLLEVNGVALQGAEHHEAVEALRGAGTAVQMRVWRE
# Sequence of NOS1, P29475 (P29475 9-101): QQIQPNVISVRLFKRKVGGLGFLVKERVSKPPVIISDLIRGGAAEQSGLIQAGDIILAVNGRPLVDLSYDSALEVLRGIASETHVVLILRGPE
# Sequence of PTPN3, P26045 (P26045 505-587): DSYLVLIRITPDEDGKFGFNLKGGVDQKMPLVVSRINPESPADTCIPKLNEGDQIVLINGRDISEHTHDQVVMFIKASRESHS
# Sequence of PDZRN4_1, Q6ZMN7 (Q6ZMN7 213-318): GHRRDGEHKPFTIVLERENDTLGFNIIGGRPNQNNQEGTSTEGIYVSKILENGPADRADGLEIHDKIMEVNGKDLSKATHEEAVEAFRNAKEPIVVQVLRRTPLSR
# Sequence of TJP2_1, Q9UDY2 (Q9UDY2 24-128): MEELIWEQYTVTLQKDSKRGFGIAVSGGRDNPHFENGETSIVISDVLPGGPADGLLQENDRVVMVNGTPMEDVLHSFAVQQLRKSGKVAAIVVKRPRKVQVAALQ
# Sequence of Inadl_10, Q8NI35 (Q8NI35 1673-1763): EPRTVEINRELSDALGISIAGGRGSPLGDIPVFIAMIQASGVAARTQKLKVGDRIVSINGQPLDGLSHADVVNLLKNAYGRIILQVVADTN
# Sequence of Inadl_9, Q8NI35 (Q8NI35 1530-1615): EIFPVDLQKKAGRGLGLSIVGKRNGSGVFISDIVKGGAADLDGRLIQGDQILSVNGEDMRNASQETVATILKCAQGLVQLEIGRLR
# Sequence of Inadl_8, Q8NI35 (Q8NI35 1425-1530): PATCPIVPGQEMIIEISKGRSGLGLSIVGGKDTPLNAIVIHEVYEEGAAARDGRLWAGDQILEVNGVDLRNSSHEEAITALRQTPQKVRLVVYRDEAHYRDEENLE
# Sequence of DLG1_2, Q12959 (Q12959 314-412): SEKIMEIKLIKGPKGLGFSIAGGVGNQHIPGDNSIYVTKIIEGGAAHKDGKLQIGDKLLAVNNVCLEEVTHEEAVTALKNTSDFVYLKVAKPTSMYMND
# Sequence of TJP1_3, Q07157 (Q07157 416-512): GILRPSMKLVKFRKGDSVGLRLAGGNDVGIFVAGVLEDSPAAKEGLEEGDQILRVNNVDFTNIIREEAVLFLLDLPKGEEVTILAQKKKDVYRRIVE
# Sequence of FRMPD3, Q5JV73 (Q5JV73 12-100): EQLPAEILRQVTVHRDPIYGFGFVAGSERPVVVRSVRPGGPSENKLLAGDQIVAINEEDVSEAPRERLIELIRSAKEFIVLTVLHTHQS
# Sequence of PDLIM1, O00151 (O00151 1-87): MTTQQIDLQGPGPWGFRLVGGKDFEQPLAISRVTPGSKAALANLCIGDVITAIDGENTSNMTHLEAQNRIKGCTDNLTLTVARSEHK
binder,measurement,setting,value
"NTANRRTTPV [CACNG2, Q9Y698]",pKd,[1]; [30],4.23
same,pKd,[2]; [30],3.92
same,pKd,[3]; [30],below the threshold
same,pKd,[4]; [30],below the threshold
same,pKd,[5]; [30],below the threshold
same,pKd,[6]; [30],3.49
same,pKd,[7]; [30],5.01
same,pKd,[8]; [30],below the threshold
same,pKd,[9]; [30],4.69
same,pKd,[10]; [30],below the threshold
same,pKd,[11]; [30],below the threshold
same,pKd,[12]; [30],below the threshold
same,pKd,[13]; [30],3.76
same,pKd,[14]; [30],below the threshold
same,pKd,[15]; [30],below the threshold
same,pKd,[16]; [30],4.16
same,pKd,[17]; [30],below the threshold
same,pKd,[18]; [30],below the threshold
same,pKd,[19]; [30],below the threshold
same,pKd,[20]; [30],below the threshold
same,pKd,[21]; [30],below the threshold
same,pKd,[22]; [30],below the threshold
same,pKd,[23]; [30],below the threshold
same,pKd,[24]; [30],3.99
same,pKd,[25]; [30],3.9
same,pKd,[26]; [30],4.52
same,pKd,[27]; [30],below the threshold
same,pKd,[28]; [30],below the threshold
same,pKd,[29]; [30],below the threshold
"AEASVACSLC [PTGIR, P43119]",pKd,[1]; [30],3.77
same,pKd,[2]; [30],below the threshold
same,pKd,[3]; [30],4.54
same,pKd,[4]; [30],below the threshold
same,pKd,[5]; [30],below the threshold
same,pKd,[6]; [30],below the threshold
same,pKd,[7]; [30],below the threshold
same,pKd,[8]; [30],below the threshold
same,pKd,[9]; [30],below the threshold
same,pKd,[10]; [30],4.15
same,pKd,[11]; [30],below the threshold
same,pKd,[12]; [30],below the threshold
same,pKd,[13]; [30],below the threshold
same,pKd,[14]; [30],below the threshold
same,pKd,[15]; [30],below the threshold
same,pKd,[16]; [30],below the threshold
same,pKd,[17]; [30],below the threshold
same,pKd,[18]; [30],below the threshold
same,pKd,[19]; [30],below the threshold
same,pKd,[20]; [30],3.78
same,pKd,[21]; [30],below the threshold
same,pKd,[22]; [30],below the threshold
same,pKd,[23]; [30],below the threshold
same,pKd,[24]; [30],below the threshold
same,pKd,[25]; [30],below the threshold
same,pKd,[26]; [30],3.54
same,pKd,[27]; [30],below the threshold
same,pKd,[28]; [30],below the threshold
same,pKd,[29]; [30],below the threshold
"TQKFRASTAL [FRMPD1, Q5SYB0]",pKd,[1]; [31],below the threshold
same,pKd,[2]; [31],4.59
same,pKd,[3]; [31],4.47
same,pKd,[4]; [31],below the threshold
same,pKd,[5]; [31],below the threshold
same,pKd,[6]; [31],4.22
same,pKd,[7]; [31],3.62
same,pKd,[8]; [31],below the threshold
same,pKd,[9]; [31],3.85
same,pKd,[10]; [31],below the threshold
same,pKd,[11]; [31],below the threshold
same,pKd,[12]; [31],below the threshold
same,pKd,[13]; [31],3.5
same,pKd,[14]; [31],3.61
same,pKd,[15]; [31],below the threshold
same,pKd,[16]; [31],3.49
same,pKd,[17]; [31],4.12
same,pKd,[18]; [31],4.17
same,pKd,[19]; [31],below the threshold
same,pKd,[20]; [31],below the threshold
same,pKd,[21]; [31],below the threshold
same,pKd,[22]; [31],below the threshold
same,pKd,[23]; [31],below the threshold
same,pKd,[24]; [31],3.72
same,pKd,[25]; [31],below the threshold
same,pKd,[26]; [31],4.45
same,pKd,[27]; [31],below the threshold
same,pKd,[28]; [31],below the threshold
same,pKd,[29]; [31],below the threshold
